# Laboratory results as given in paper PMC4973843, “Dimeric chlorite dismutase from the nitrogen‐fixing cyanobacterium C yanothece sp. PCC7425” (Molecular Microbiology, 2015).
# Substrate: [O-][Cl+]O
# Test: Clark-type oxygen electrode, O2 release
# Format: biochemical, Cyanothece sp. PCC 7425
# Details: 50 mM citrate phosphate pH 5.0, 30°C
protein,measurement,value
"CCld (chlorite dismutase from Cyanothece sp. PCC7425) (Cyanothece sp. PCC 7425) (protein, heme b) NNRYSFIGGRTGQWQVVKIRNVLGPGLQLVEKVNILNGAVAEIPLDSAWRLQGFASNIRYAIRTELEALQAVQPMLNRAEAILAVLIPIKKSAQWWEMAQDERRDIFERESHHTAVGLEYLPGVARRLLHCRDLGEEFDFLTWFEFAPEHSSAFNELLLRMRASKEWEYVEREVEVWLKRL",Km,162 ± 10.0 µM
same,kcat,1144 ± 23.8 s⁻¹
